Laboratory results from article doi:10.1101/2020.10.19.344861 (bioRxiv, 2020).

B1: CynR (full length) (natural protein, Escherichia coli, UniProt P27111 1-299, looked up)
chain: MLSRHINYFLAVAEHGSFTRAASALHVSQPALSQQIRQLEESLGVPLFDRSGRTIRLTDAGEVWRQYASRALQELGAGKRAIHDVADLTRGSLRIAVTPTFTSYFIGPLMADFYARYPSITLQLQEMSQEKIEDMLCRDELDVGIAFAPVHSPELEAIPLLTESLALVVAQHHPLAVHEQVALSRLHDEKLVLLSAEFATREQIDHYCEKAGLHPQVVIEANSISAVLELIRRTSLSTLLPAAIATQHDGLKAISLAPPLLERTAVLLRRKNSWQTAAAKAFLHMALDKCAVVGGNESR
B2: cherry-core (CC) of CynR, effector binding domain (domain or fragment, Escherichia coli, UniProt P27111 59-299, looked up)
chain: DAGEVWRQYASRALQELGAGKRAIHDVADLTRGSLRIAVTPTFTSYFIGPLMADFYARYPSITLQLQEMSQEKIEDMLCRDELDVGIAFAPVHSPELEAIPLLTESLALVVAQHHPLAVHEQVALSRLHDEKLVLLSAEFATREQIDHYCEKAGLHPQVVIEANSISAVLELIRRTSLSTLLPAAIATQHDGLKAISLAPPLLERTAVLLRRKNSWQTAAAKAFLHMALDKCAVVGGNESR

Target: the molecule itself
Test: SEC-MALS

| Protein | stoichiometry N |
| --- | --- |
| B1 | 4 |
| B2 | 2 |
